30 sequences from the nanobody polyreactivity screen of Harvey et al. (2022) can be followed below.

A short description of the data set: yeast display, Sf9 membrane polyspecificity reagent, FACS + sequencing; frameworks hold sequencing errors. An outline of the steps:
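Galactose-induced (36–48 hours) yeast carrying a synthetic nanobody display library were exposed to 10% biotinylated, detergent-solubilized Sf9 membrane reagent at 4 °C for 1 hour. FACS followed streptavidin microbead enrichment, using low and high (top ~1%) gates for expression (anti-HA) and reagent binding (streptavidin). Colony PCR, MiSeq 2 × 250 sequencing and CDR-length filtering followed. Labels for polyreactivity reflect the gate of origin.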
As to “QVQLVESGGGLVQAGGSLRLSCAASGSIFRRYVMGWYRQAPGKERELVASISSNGTSTYYADSVKGRFTISRDNSKNTVYLQMNSLKPEDTAVYYCNVDIFDPRTYDYWGQGTQVTVSS”, the “polyreactivity (PSR sort gate)” value is “low polyreactivity”.

For “QVQLVESGGGLVQAGGSLRLSCAASGSIFRSNTMGWYRQAPGKERELVASITRGGSTNYADSVKGRFTISRDNAKNTVYLQMNSLKPEDTAVYYCIARRTVRYYFSYGYWGQGTQVTVSS”, the “polyreactivity (PSR sort gate)” value is given as “high polyreactivity”. For the sequence “QVQLVESGGGLVQAGGSLRLSCAASGSIFRSYAMGWYRQAPGKERELVAAIRSDGRTNYADSVKGRFTISRDNAKNTVYLQMNSLKPEDTAVYYCAAKAYYSYWRSMDYWGQGTQVTVSS”, the “polyreactivity (PSR sort gate)” value is “low polyreactivity”. The same measure for “QVQLVESGGGLVQAGGSLRLSCAASGSIFRSYAMGWYRQAPGKERELVAAISRRGGSTYYADSVKGRFTISRDNAKNTVYLQMNSLKPEDTAVYYCAADRTGPYDYWGQGTQVTVSS”: “high polyreactivity”; for “QVQLVESGGGLVQAGGSLRLSCAASGSIFRSYAMGWYRQAPGKERELVAAISSRSGSTYYADSVKGRFTISRDNAKNTVYLQMISLKPEDTAVYYCAAQHRHSYGYWGQGTQVTVSS”: “high polyreactivity”. The same measure for “QVQLVESGGGLVQAGGSLRLSCAASGSIFRSYAMGWYRQAPGKERELVAAISSSSGSTYYADSVKGRFTISRDNAKNTVYLQMNSLKPEDTAVYYCAARSRIGNNGYEYWGQGTQVTVSS”: “low polyreactivity”; for “QVQLVESGGGLVQAGGSLRLSCAASGSIFRSYAMGWYRQAPGKERELVAAITFSGGRTYYADSVKGRFTISRDNAKNTVYLQMNSLKPEDTGVYYCNARHRNLAEYDYWGQGTQVTVSS”: “low polyreactivity”.

Take “QVQLVESGGGLVQAGGSLRLSCAASGSIFRSYAMGWYRQAPGKERELVASISRRGGSTYYADSVKGRFTISRDNAKNTVYLQMNSLKLEDTAVYYCAAVRYNSRVSTTPSEMYYWGQGTQVTVSS”: the “polyreactivity (PSR sort gate)” value was “low polyreactivity”.

For “QVQLVESGGGLVQAGGSLRLSCAASGSIFRSYAMGWYRQAPGKERQLVARISKRGGSTYYADSVKGRFTISRENAKNTVYLQMNSLKPEDSAVYYCNASYFRYRYNRYVYWGQGTQVTVSS”, the “polyreactivity (PSR sort gate)” value is “high polyreactivity”. On to “QVQLVESGGGLVQAGGSLRLSCAASGSIFRSYAMGWYRQAPGNERELVAALSGRGSNTYYADSVKGRFTISRDNAKNTVYLQMNSLKPEDTAVYYGATRRHYGSTRSYDYWGQGTQVTVSS”, for which the “polyreactivity (PSR sort gate)” value is recorded as “high polyreactivity”. Regarding “QVQLVESGGGLVQAGGSLRLSCAASGSIFRSYAMGWYSPSPGKERELVAAITRSGGSTYYADSVKGRFTISRDNAKNTVYLQMNSLKPEDTAVYYCAAEYYSYTWGWGHGYWGQGTQVTVSS”, the “polyreactivity (PSR sort gate)” value is given as “high polyreactivity”. The same measure for “QVQLVESGGGLVQAGGSLRLSCAASGSIFRTYVMGWYRQAPGKERELVATIDSTSGSTYYADSVKGRFTISRDNAKNTVYLQMNSLKPEDTAVYYCNVLVYYYYVVKSTYRWYDYWGQGTQVTVSS”: “high polyreactivity”. The entry for “QVQLVESGGGLVQAGGSLRLSCAASGSIFRVYAMGWYRQAPGKERELVAAIRSGGGTNYADSVKGRFTISRDNAKITVYLQMNSLKPEDTAVYYCAREAATDISPGYDYWGQGTQVTVSS” is “low polyreactivity”; for “QVQLVESGGGLVQAGGSLRLSCAASGSIFRVYAMGWYRQAPGKERELVAAISSIVGSTYYADSVKGRFTISRDNAKNTVYLQMNSLKPADTAVYYCNKDGTWPRTGSEYDYWGQGTQVTVSS” it is “low polyreactivity”.

Turning to “QVQLVESGGGLVQAGGSLRLSCAASGSIFRVYAMGWYRQAPGKERELVAAISVSGGSTNYADSVKGRFTISRDNAKNTVYLQMNSLKPEDTAVYYCNRKQQVSSELDYWGQGTQVTVSS”, the “polyreactivity (PSR sort gate)” value was “low polyreactivity”. Take “QVQLVESGGGLVQAGGSLRLSCAASGSIFRVYAMGWYRQAPGKERELVASISRRGGSTYYADSVKGRFTISRDNAKKTVYLQMNSLKPEETAVYYFAAEFVIGGHGYDYWGQGTQVTVSS”: the “polyreactivity (PSR sort gate)” value was “high polyreactivity”. On to “QVQLVESGGGLVQAGGSLRLSCAASGSIFRVYMGWYRQAPGKERELVATIRWSSGSTYYADSVKGRFTISRDNAKNTVYLQMNSLKPEDTAVYYCAVKGPYYDDYDYWGQGTQVTVSS”, for which the “polyreactivity (PSR sort gate)” value was “low polyreactivity”. Regarding “QVQLVESGGGLVQAGGSLRLSCAASGSIFRWNAMGWYRQAPGKERELVAAIDSGGSTYADSVKGRFTISRDNAKNTVYLQMNSLKPEDTAVYYCAAEIPDEWPYDYWGQGTQVTVSS”, the “polyreactivity (PSR sort gate)” value was “low polyreactivity”.

With “QVQLVESGGGLVQAGGSLRLSCAASGSIFRWNAMGWYRQAPGKERELVAAITWRSSSTYYADSVKGRFTISRDNAKNTVYLQMNSLKPEDTAVYYCNAKRGVQTYANFYGSKYDYWGQGTQVTVSS”, the “polyreactivity (PSR sort gate)” value is listed as “high polyreactivity”. Turning to “QVQLVESGGGLVQAGGSLRLSCAASGSIFRWYAMGWYRQAPGKERELVAAITWSASRTYYADSVKGRFTISRDNAKNTVYLQMNSLKPEDTAVYYCAKRGWSSVYFHGGFGYKLYDYWGQGTQVTVSS”, the “polyreactivity (PSR sort gate)” value is recorded as “low polyreactivity”. The entry for “QVQLVESGGGLVQAGGSLRLSCAASGSIFRWYAMGWYRQAPGKERELVASITRSGGRTYYADSVKGRFTISRDNAKNTVYLQMNSLKPEDTAVYYCAADYYAYWYRYRYYYWGQGTQVTVSS” is “high polyreactivity”. In the case of “QVQLVESGGGLVQAGGSLRLSCAASGSIFRWYDMGWYRQAPGKERELVAVISKRGGSTYYADSVKGRFSISRDNAKNTVYLQMTSLKPEDTAVYSCAKRYERWQLARLDYWGQGTQVTVSS”, the “polyreactivity (PSR sort gate)” value is given as “high polyreactivity”. The same measure for “QVQLVESGGGLVQAGGSLRLSCAASGSIFRWYTMGWYRQAPGKERELVAAISRSGGSTYYADSVKGRFTISRDNAKNTVYLQMNRLKPEDTAVYYCAADKFRHPYWDRYIYFHYDYWGQGTQVTVSS”: “low polyreactivity”. Consider “QVQLVESGGGLVQAGGSLRLSCAASGSIFRYAMGWYRQAPGKEREFVAAITSRGGTTYYADSVKGRFTISRDNAKNTVYLLMNSLKPEDTAVYYCYAHRYATAGSWVVRHDYWGQGTQGTVSS”, for which the “polyreactivity (PSR sort gate)” value is “high polyreactivity”. The same measure for “QVQLVESGGGLVQAGGSLRLSCAASGSIFRYNAMGWYRQAPGKERELVASISISDGSTYYADSVKGRFTISRDNAKNTVYLQMKSLKPEDTAVYYCAARTRDFYYPYDYWGQGTQVTVSS”: “low polyreactivity”; for “QVQLVESGGGLVQAGGSLRLSCAASGSIFRYNTMGWYRQAPGKERELVAAITSSGGRTYYADSVKGRFTISRDNAKNTVYLQMNSLKPEDTAVYYCAARRSFYGRVYDDQYDYWGQGTQVTVSS”: “high polyreactivity”; for “QVQLVESGGGLVQAGGSLRLSCAASGSIFRYNTMGWYRQAPGKERELVARISSGGSTYYADSVKGRFTISRDNAKNTVYLQMNSLKPEDTAVYYCAAVSRHRGWDRYYWGQGTQVTVSS”: “high polyreactivity”. For the sequence “QVQLVESGGGLVQAGGSLRLSCAASGSIFRYNTMGWYRQATGKERELDATITRRGGSTYYADSVKGRFTISRDNAKNTVYLQMNSLKPEDTAVYYCNADNFGGPFNYWGQGTQVTVSS”, the “polyreactivity (PSR sort gate)” value is listed as “low polyreactivity”.

On to “QVQLVESGGGLVQAGGSLRLSCAASGSIFRYYAMGWYRPATGKERELVADITSSGGSTYYADSVKGRFTISRDNPKNTVYLQMNSLKREDTAVYYCASLYWFYVYPFTEYDYWGQGTQVTVSS”, for which the “polyreactivity (PSR sort gate)” value was “low polyreactivity”. In the case of “QVQLVESGGGLVQAGGSLRLSCAASGSIFRYYAMGWYRQAPGKERELVAAITASSGNTYYADSVKGRFTISRDNAKNTVYLQMNRLKPEDTSVYYCSKQPGISYRHYDYWGLGTQVTVSS”, the “polyreactivity (PSR sort gate)” value is recorded as “high polyreactivity”.
